The source of these data is patent US20170226225A1 (Merck Sharp & Dohme, published 2017).

Assay [1] addresses T1, human coagulation Factor XI (FXI) zymogen (human, UniProt P03951 19-625). The assay is described as follows: cell-based or functional assay.
The target of assay [2] is T1, human coagulation Factor XI (FXI) …. The assay is described as follows: cell-based or functional assay. The source holds these as a separate data set.
Assay [3] addresses T2, cynomolgus monkey FXI zymogen (cynomolgus monkey, UniProt A0A2K5VVW4 19-624). The assay is described as follows: cell-based or functional assay.
In assay [4] the target is T3, rhesus monkey FXI zymogen (rhesus monkey, UniProt F6PJ95 19-624). The experiment in a line: cell-based or functional assay.
Assay [5] concerns the target T1, human coagulation Factor XI (FXI) …. The experiment in a line: SPR (ProteOn XPR36), antibody captured by anti-human IgG, FXI as analyte; mean ± SD, N=3.
Procedure: (§1) 1 M ethanolamine HCl is then injected across all six vertical flow channels to neutralize remaining reactive surface amines. The anti-FXI antibodies are then injected at 25 μL/minutes for 60 seconds, each into a distinct vertical flow channel coated with capture antibody (L2, L3, L4, L5, or L6), at a concentration of 5 μg/mL in 10 mM sodium acetate, pH 5.0, to achieve saturating capture levels of approximately 80 RU; vertical flow channel L1 is injected with 10 mM sodium acetate, pH 5.0 (buffer alone), as a reference control. After capture of anti-FXI antibodies, running buffer (1×HBS-N, 5 mM CaCl₂, 0.005% P20, pH 7.4) is injected across all horizontal flow channels (A1-A6) for 5 minutes and allowed to dissociate for 20 minutes at 25 μL/minutes to remove any non-specifically bound anti-FXI antibodies from the chip surface. To measure on-rate (kₐ) of human FXI to captured anti-FXI antibodies, a 6-point titration of human FXI zymogen (0, 0.25, 0.5, 1.0, 2.0, 4.0 nM diluted in running buffer) is subsequently injected horizontally across all six vertical flow channels for 8 minutes; the bound zymogen is then allowed to dissociate for 60 minutes in running buffer at 25 μL/min to measure off-rate (kd). Binding kinetics and affinity (KD) may be determined using instrument-specific software (Bio-Rad).
(§2) A GLC low-density sensor chip is washed across all vertical and horizontal flow channels with 0.5% sodium dodecyl-sulfate, 50 mM sodium hydroxide, and 100 mM hydrochloric acid for 60 seconds at 30 μL/second flow rate.
Assay [6] has as its target T2, cynomolgus monkey FXI zymogen. Described as above.
Procedure: as §1, §2
In assay [7] the target is T3, rhesus monkey FXI zymogen. The assay is described as above.
Procedure: as §1, §2
The next assay has as its target human FXIa (human, UniProt P03951 19-625). The experiment in a line: SPR (ProteOn XPR36), antibody captured by anti-human IgG, FXIa as analyte; mean ± SD, N=3.
Another assay deals with cynomolgus monkey FXIa (cynomolgus monkey, UniProt A0A2K5VVW4 19-624). The assay is described as above.

B1: αFXI-13716-IgG4 (S228P) Q1E M103L (K-)/kappa (antibody, V domains shown)
VH: EVQLVQSGAEVKKPGASVKVSCKASGYTFTSYSMHWVRQAPGQGLEWMGIINPSGGSTSYAQKFQGRVTMTRDTSTSTVYMELSSLRSEDTAVYYCARGAYLLELYYYYGMDVWGQGTTVTVSS
VL: EIVMTQSPATLSVSPGERATLSCRASQSVSSNLAWYQQKPGQAPRLLIYGASTRATGIPARFSGSGSGTEFTLTISSLQSEDFAVYYCQQFNDWPLTFGGGTKVEIKR
notes: Human IgG4 S228P heavy chain with Q1E and M103L, lacking the C-terminal lysine; kappa light chain
For the molecule B1, the “FXIa Activation Inhibition (EC50, nM); autoactivation of FXI on dextran sulfate, Z-GPR-AFC cleavage” value (shortened to “FXIa Activation Inhibition (EC50, nM)”) in assay [1] was 11 nM. The “aPTT in human plasma: concentration that prolongs clotting time by 50% (1.5x)” value (shortened to “aPTT in human plasma … by 50% (1.5x)”) in [2] worked out at 20.9 nM. Also, the “aPTT in cynomolgus monkey plasma: concentration that prolongs clotting time by 50% (1.5x)” value (“aPTT in cynomolgus monkey plasma … by 50% (1.5x)” below) in assay [3] was 21.1 nM. The “aPTT in rhesus monkey plasma: concentration that prolongs clotting time by 50% (1.5x)” value (from here on “aPTT in rhesus monkey plasma … by 50% (1.5x)”) in assay [4] came out at 17.4 nM. The Kd in assay [5] was determined as 2.5 pM; in [6], 6.9 pM; in [7], 2 pM; with human FXIa, 1.1 pM; with cynomolgus monkey FXIa, 3.3 pM.

B2: αFXI-13716p-IgG4 (S228P) (K-)/kappa (antibody, V domains shown)
VH: QVQLVQSGAEVKKPGASVKVSCKASGYTFTSYSMHWVRQAPGQGLEWMGIINPSGGSTSYAQKFQGRVTMTRDTSTSTVYMELSSLRSEDTAVYYCARGAYLMELYYYYGMDVWGQGTTVTVSS
VL: EIVMTQSPATLSVSPGERATLSCRASQSVSSNLAWYQQKPGQAPRLLIYGASTRATGIPARFSGSGSGTEFTLTISSLQSEDFAVYYCQQFNDWPLTFGGGTKVEIKR
notes: Human IgG4 S228P heavy chain lacking the C-terminal lysine; kappa light chain; also called α13716p-IgG4 (S228P) (K-)/kappa
Turning to B2, in assay [1], the “FXIa Activation Inhibition (EC50, nM)” value was 4 nM. For the same molecule, the “aPTT in human plasma … by 50% (1.5x)” value in assay [2] is 21.6 nM. In [3], the “aPTT in cynomolgus monkey plasma … by 50% (1.5x)” value stood at 22.5 nM. In addition, the “aPTT in rhesus monkey plasma … by 50% (1.5x)” value in assay [4] was determined as 19.4 nM. In addition, the Kd in [5] amounted to 3.5 pM; in [6], 7.5 pM; in [7], 3.1 pM; with human FXIa, 1.3 pM; in the assay with cynomolgus monkey FXIa it was 3.7 pM.

B3: αFXI-13654p-IgG4 (S228P) (K-)/kappa (antibody, V domains shown)
VH: EVQLVESGGGLVKPGGSLRLSCAASGFTFSSYSMNWVRQAPGKGLEWVSSISSSSSYIYYADSVKGRFTISRDNAKNSLYLQMNSLRAEDTAVYYCARSYYDYDQGYGMDVWGQGTTVTVSS
VL: DIQMTQSPSSVSASVGDRVTITCRASQGISSWLAWYQQKPGKAPKLLIYAASSLQSGVPSRFSGSGSGTDFTLTISSLQPEDFATYYCQQVNSYPITFGGGTKVEIKR
notes: Human IgG4 S228P heavy chain lacking the C-terminal lysine; kappa light chain
Consider B3, for which the “FXIa Activation Inhibition (EC50, nM)” value in assay [1] is 10 nM. Moreover, the “aPTT in human plasma … by 50% (1.5x)” value in assay [2] came to 16.8 nM. Also, the “aPTT in cynomolgus monkey plasma … by 50% (1.5x)” value in assay [3] was found to be 21.6 nM. Further, in [4], the “aPTT in rhesus monkey plasma … by 50% (1.5x)” value came to 25 nM. Further, the Kd came to 26.5 pM in assay [5]; 12.9 pM in assay [6]; 26.6 pM in assay [7]; 9 pM with human FXIa; 2 pM in the assay with cynomolgus monkey FXIa.
